According to patent publication US20200131496A1 (REGENTS OF THE UNIVERSITY OF MINNESOTA, published 2020):
Substitutions are numbered along the chain they refer to. Numbers in names are those of the source.

Columns and labels:
[1] = target: the molecule itself; assay: ion exchange and size-exclusion chromatography; self-association, RNA-mediated
[2] = target: the molecule itself; assay: size-exclusion chromatography; self-association, RNA-mediated
[3] = target: the molecule itself; assay: size-exclusion chromatography (self-association)

B1: His-tagged mCherry(1-232)-3×Ala linker-A3H-HapII(1-183), wild-type (enzyme)
chain: AAAMALLTAETFRLQFNNKRRLRRPYYPRKALLCYQLTPQNGSTPTRGYFENKKKCHAEICFINEIKSMGLDETQCYQVTCYLTWSPCSSCAWELVDFIKAHDHLNLRIFASRLYYHWCKPQQDGLRLLCGSQVPVEVMGFPEFADCWENFVDHEKPLSFNPYKMLEELDKNSRAIKRRLDRIKQS
notes: range 1-232; Purified from E. coli with RNase A treatment; also called wild-type mCherry-A3H; mCherry-A3Hwt; not shown: N-terminal His tag from the pRSFDuet-1 vector and engineered HRV 3C protease site upstream of mCherry; mCherry residues 1-232, amplified from pRSETB-mCherry (Shaner et al. 2004)
[1]
  binding result: binds

B2: mCherry-A3H-E56A-K52E (enzyme)
chain: B1 chain with K55E, E59A
notes: range 1-232; Used in size-exclusion chromatography and in the second crystal structure (6BBO); also called mCherry-A3H-K52E-E56A; A3H-K52E-E56A; not shown: N-terminal His tag from the pRSFDuet-1 vector and HRV 3C protease site; crystallized by similar met; mCherry residues 1-232, amplified from pRSETB-mCherry
[2]
  binding result: binds

B3: mCherry-A3H-E56A (enzyme)
chain: B1 chain with E59A
notes: range 1-232; Catalytic mutant; also called E56A catalytic mutant; not shown: N-terminal His tag from the pRSFDuet-1 vector and HRV 3C protease site; mCherry residues 1-232, amplified from pRSETB-mCherry
[2]
  binding result: binds

B4: mCherry-A3H-E56A-W115A-R175/6E (enzyme)
chain: B1 chain with E59A, W118A, R178E, R179E
notes: range 1-232; E56A added to prevent E. coli toxicity; preparation lacks RNA; also called W115A/R175/6E with E56A; not shown: N-terminal His tag from the pRSFDuet-1 vector and HRV 3C protease site; mCherry residues 1-232, amplified from pRSETB-mCherry
[3]
  binding result: no binding

B5: mCherry-A3H-K52E (enzyme)
chain: B1 chain with K55E
notes: range 1-232; His tag present in size-exclusion chromatography; Crystal holds two A3H monomers bridged by duplex RNA; also called mCherry-K52E; pdb 6BOB; not shown: N-terminal His tag from the pRSFDuet-1 vector and HRV 3C protease site; tag removed with 3C proteas; mCherry residues 1-232, amplified from pRSETB-mCherry
[2]
  binding result: binds
